This note sets out measurements from patent US20180086829A1 (published 2018).

Test [1] addresses T1, human LILRB4 (human, UniProt Q8NHJ6 22-259, limits assumed).
T1 construct: also called leukocyte immunoglobulin-like receptor subfamily B member 4
As to the kind of experiment: ELISA; upper end of the range, tied to #216-1 by Table 1.

Test [2] deals with T1, human LILRB4. As to the kind of experiment: ELISA; lower end of the range, tied to #214 by Table 1.
Test [3] concerns the target T1, human LILRB4. The test is described as follows: ELISA.

B1: anti-LILRB4 rabbit monoclonal antibody #216-1 (antibody, V domains shown)
VH: EQSVEESGGGLVKPGASLTLTCIASGFSFSSSYVMCWVRQAPGKGLELIACIHAGGSGSTYYASWAKGRFTISKTSSTTVTLQMTSLTAADTATYFCARYNYHFYYIGDYSDLWGPGTLVTVSS
VL: ELVMTQTPSSVSAAVGGTVTIKCQASEDIDSYLAWYQQKPGQRPKVLIYRASTLASGVPSRFKGSGSGTEFTLTISGLECDDAATYYCQQGWSNDVGSNAFGGGTKVEIK
notes: Rabbit monoclonal antibody
The molecule B1 returned an EC50 in the test with human LILRB4 [1] of 0.3 nM.

B2: anti-LILRB4 rabbit monoclonal antibody #214 (antibody, V domains shown)
VH: QSVKESGGRLVTPGTPLTLTCTVSGFSLSSYWMHWVRQAPGKGLEWVGVVSVSGNFYYATWAKGRFTISKTSTTVDLKITSPTIEDTAFYFCTMSFALWGQGTLVTISS
VL: ELVMTQTASPVSAAVGGTVTINCQSSQSVYSNNNLGWLKQKPGQPPKELIYYASTLASGVPSRFKGSGSGTQFTLTISDLECDDAATYYCVGGYGCSSADCSVFGGGTEVEIK
notes: Rabbit monoclonal antibody
On to B2, for which the EC50 with human LILRB4 [2] was 0.05 nM.

B3: anti-LILRB4 rabbit monoclonal antibody #78 (antibody, V domains shown)
VH: QSLQESGGRLVTPGTPLTLTCTVSGIDLSVYLMSWVRQSPGKGLEYIGFINSAGITAYATWAKGRFIISKTSTTVDLKVTSPTTEDTATYFCARNWIRLDLWGQGTLVTISS
VL: ELVLTQTPASVSAAVGGTVTISCQSSESIYKNYLSWFQQKPGQPPKLLIYETSKLASGVPSRFSGSGSGTQFTLTISDVQCDDAATYYCLGGYTNGRDTIFGGGTELEIK
notes: Rabbit monoclonal antibody; also called mAb 78; bin 1
With B3, it took 0.0808 nM to reach a half-maximal effect with human LILRB4 [3] (EC50).
